The text below walks through data of patent US20110263827A1 (AbbVie / Abbott, published 2011).

First the molecules themselves.
B1: DVD337 (bispecific antibody)
VH: QVQLQESGPGLVKPSQTLSLTCTVSGYSISSDFAWNWIRQPPGKGLEWMGYISYSGNTRYQPSLKSRITISRDTSKNQFFLKLNSVTAADTATYYCVTAGRGFPYWGQGTLVTVSSASTKGPEVQLVESGGGLVQPGGSLRLSCAASGYTFTNYGMNWVRQAPGKGLEWVGWINTYTGEPTYAADFKRRFTFSLDTSKSTAYLQMNSLRAEDTAVYYCAKYPHYYGSSHWYFDVWGQGTLVTVSS
VL: DIQMTQSPSSMSVSVGDRVTITCHSSQDINSNIGWLQQKPGKSFKGLIYHGTNLDDGVPSRFSGSGSGTDYTLTISSLQPEDFATYYCVQYAQFPWTFGGGTKLEIKRTVAAPDIQMTQSPSSLSASVGDRVTITCSASQDISNYLNWYQQKPGKAPKVLIYFTSSLHSGVPSRFSGSGSGTDFTLTISSLQPEDFATYYCQQYSTVPWTFGQGTKVEIKR
notes: DVD-Ig; HC S, LC S; variable parts only
B2: DVD759 (bispecific antibody)
VH: QVQLQESGPGLVKPSQTLSLTCTVSGYSISSDFAWNWIRQPPGKGLEWMGYISYSGNTRYQPSLKSRITISRDTSKNQFFLKLNSVTAADTATYYCVTAGRGFPYWGQGTLVTVSSASTKGPEVQLVESGGGLVQPGGSLRLSCAASGFTINASWIHWVRQAPGKGLEWVGAIYPYSGYTNYADSVKGRFTISADTSKNTAYLQMNSLRAEDTAVYYCARWGHSTSPWAMDYWGQGTLVTVSS
VL: DIQMTQSPSSMSVSVGDRVTITCHSSQDINSNIGWLQQKPGKSFKGLIYHGTNLDDGVPSRFSGSGSGTDYTLTISSLQPEDFATYYCVQYAQFPWTFGGGTKLEIKRTVAAPDIQMTQSPSSLSASVGDRVTITCRASQVIRRSLAWYQQKPGKAPKLLIYAASNLASGVPSRFSGSGSGTDFTLTISSLQPEDFATYYCQQSNTSPLTFGQGTKVEIKR
notes: as for B1
B3: DVD757 (bispecific antibody)
VH: QVQLQESGPGLVKPSQTLSLTCTVSGYSISSDFAWNWIRQPPGKGLEWMGYISYSGNTRYQPSLKSRITISRDTSKNQFFLKLNSVTAADTATYYCVTAGRGFPYWGQGTLVTVSSASTKGPEVQLVESGGGLVQPGGSLRLSCAASGFTISDYWIHWVRQAPGKGLEWVAGITPAGGYTYYADSVKGRFTISADTSKNTAYLQMNSLRAEDTAVYYCARFVFFLPYAMDYWGQGTLVTVSS
VL: DIQMTQSPSSMSVSVGDRVTITCHSSQDINSNIGWLQQKPGKSFKGLIYHGTNLDDGVPSRFSGSGSGTDYTLTISSLQPEDFATYYCVQYAQFPWTFGGGTKLEIKRTVAAPDIQMTQSPSSLSASVGDRVTITCRASQDVSTAVAWYQQKPGKAPKLLIYSASFLYSGVPSRFSGSGSGTDFTLTISSLQPEDFATYYCQQSYTTPPTFGQGTKVEIKR
notes: as for B1
B4: DVD790 (bispecific antibody)
VH: EVQLVESGGGLVQPGGSLRLSCAASGFTISDYWIHWVRQAPGKGLEWVAGITPAGGYTYYADSVKGRFTISADTSKNTAYLQMNSLRAEDTAVYYCARFVFFLPYAMDYWGQGTLVTVSSASTKGPSVFPLAPQVQLQESGPGLVKPSQTLSLTCTVSGYSISSDFAWNWIRQPPGKGLEWMGYISYSGNTRYQPSLKSRITISRDTSKNQFFLKLNSVTAADTATYYCVTAGRGFPYWGQGTLVTVSS
VL: DIQMTQSPSSLSASVGDRVTITCRASQDVSTAVAWYQQKPGKAPKLLIYSASFLYSGVPSRFSGSGSGTDFTLTISSLQPEDFATYYCQQSYTTPPTFGQGTKVEIKRTVAAPSVFIFPPDIQMTQSPSSMSVSVGDRVTITCHSSQDINSNIGWLQQKPGKSFKGLIYHGTNLDDGVPSRFSGSGSGTDYTLTISSLQPEDFATYYCVQYAQFPWTFGGGTKLEIKR
notes: DVD-Ig; HC L, LC L; variable parts only
B5: DVD820 (bispecific antibody)
VH: B4 VH
VL: DIQMTQSPSSLSASVGDRVTITCRASQDVSTAVAWYQQKPGKAPKLLIYSASFLYSGVPSRFSGSGSGTDFTLTISSLQPEDFATYYCQQSYTTPPTFGQGTKVEIKRTVAAPDIQMTQSPSSMSVSVGDRVTITCHSSQDINSNIGWLQQKPGKSFKGLIYHGTNLDDGVPSRFSGSGSGTDYTLTISSLQPEDFATYYCVQYAQFPWTFGGGTKLEIKR
notes: DVD-Ig; HC L, LC S; variable parts only
B6: DVD850 (bispecific antibody)
VH: EVQLVESGGGLVQPGGSLRLSCAASGFTISDYWIHWVRQAPGKGLEWVAGITPAGGYTYYADSVKGRFTISADTSKNTAYLQMNSLRAEDTAVYYCARFVFFLPYAMDYWGQGTLVTVSSASTKGPQVQLQESGPGLVKPSQTLSLTCTVSGYSISSDFAWNWIRQPPGKGLEWMGYISYSGNTRYQPSLKSRITISRDTSKNQFFLKLNSVTAADTATYYCVTAGRGFPYWGQGTLVTVSS
VL: B4 VL
notes: DVD-Ig; HC S, LC L; variable parts only
B7: DVD780 (bispecific antibody)
VH: EVQLVESGGGLVQPGGSLRLSCAASGYTFTNYGMNWVRQAPGKGLEWVGWINTYTGEPTYAADFKRRFTFSLDTSKSTAYLQMNSLRAEDTAVYYCAKYPHYYGSSHWYFDVWGQGTLVTVSSASTKGPSVFPLAPQVQLQESGPGLVKPSQTLSLTCTVSGYSISSDFAWNWIRQPPGKGLEWMGYISYSGNTRYQPSLKSRITISRDTSKNQFFLKLNSVTAADTATYYCVTAGRGFPYWGQGTLVTVSS
VL: DIQMTQSPSSLSASVGDRVTITCSASQDISNYLNWYQQKPGKAPKVLIYFTSSLHSGVPSRFSGSGSGTDFTLTISSLQPEDFATYYCQQYSTVPWTFGQGTKVEIKRTVAAPSVFIFPPDIQMTQSPSSMSVSVGDRVTITCHSSQDINSNIGWLQQKPGKSFKGLIYHGTNLDDGVPSRFSGSGSGTDYTLTISSLQPEDFATYYCVQYAQFPWTFGGGTKLEIKR
notes: as for B4
B8: DVD810 (bispecific antibody)
VH: B7 VH
VL: DIQMTQSPSSLSASVGDRVTITCSASQDISNYLNWYQQKPGKAPKVLIYFTSSLHSGVPSRFSGSGSGTDFTLTISSLQPEDFATYYCQQYSTVPWTFGQGTKVEIKRTVAAPDIQMTQSPSSMSVSVGDRVTITCHSSQDINSNIGWLQQKPGKSFKGLIYHGTNLDDGVPSRFSGSGSGTDYTLTISSLQPEDFATYYCVQYAQFPWTFGGGTKLEIKR
notes: as for B5
B9: DVD840 (bispecific antibody)
VH: EVQLVESGGGLVQPGGSLRLSCAASGYTFTNYGMNWVRQAPGKGLEWVGWINTYTGEPTYAADFKRRFTFSLDTSKSTAYLQMNSLRAEDTAVYYCAKYPHYYGSSHWYFDVWGQGTLVTVSSASTKGPQVQLQESGPGLVKPSQTLSLTCTVSGYSISSDFAWNWIRQPPGKGLEWMGYISYSGNTRYQPSLKSRITISRDTSKNQFFLKLNSVTAADTATYYCVTAGRGFPYWGQGTLVTVSS
VL: B7 VL
notes: as for B6
B10: DVD792 (bispecific antibody)
VH: EVQLVESGGGLVQPGGSLRLSCAASGFTINASWIHWVRQAPGKGLEWVGAIYPYSGYTNYADSVKGRFTISADTSKNTAYLQMNSLRAEDTAVYYCARWGHSTSPWAMDYWGQGTLVTVSSASTKGPSVFPLAPQVQLQESGPGLVKPSQTLSLTCTVSGYSISSDFAWNWIRQPPGKGLEWMGYISYSGNTRYQPSLKSRITISRDTSKNQFFLKLNSVTAADTATYYCVTAGRGFPYWGQGTLVTVSS
VL: DIQMTQSPSSLSASVGDRVTITCRASQVIRRSLAWYQQKPGKAPKLLIYAASNLASGVPSRFSGSGSGTDFTLTISSLQPEDFATYYCQQSNTSPLTFGQGTKVEIKRTVAAPSVFIFPPDIQMTQSPSSMSVSVGDRVTITCHSSQDINSNIGWLQQKPGKSFKGLIYHGTNLDDGVPSRFSGSGSGTDYTLTISSLQPEDFATYYCVQYAQFPWTFGGGTKLEIKR
notes: as for B4
B11: DVD822 (bispecific antibody)
VH: B10 VH
VL: DIQMTQSPSSLSASVGDRVTITCRASQVIRRSLAWYQQKPGKAPKLLIYAASNLASGVPSRFSGSGSGTDFTLTISSLQPEDFATYYCQQSNTSPLTFGQGTKVEIKRTVAAPDIQMTQSPSSMSVSVGDRVTITCHSSQDINSNIGWLQQKPGKSFKGLIYHGTNLDDGVPSRFSGSGSGTDYTLTISSLQPEDFATYYCVQYAQFPWTFGGGTKLEIKR
notes: as for B5

The first test concerns the target T1, EGFR (UniProt P00533 25-645, limits assumed, biotinylated).
T1 construct: ELISA antigen; construct not described
The test can be described thus: direct bind ELISA, N-term VD.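 Note: antibody or DVD-Ig preparations bound to immobilized target antigen on ELISA plates, 1 h at room temperature, TMB detection read as absorbance at 450 nm.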
Turning to B1, the midpoint of the response, the EC50, lay at 6.5 nM.
The same measure, in the same setting: under B2 stands 7.01 nM; under B3, 14.5 nM.

Another test addresses T2, VEGF (UniProt P15692-4 27-191, limits assumed, biotinylated).
T2 construct: ELISA antigen
The test can be described thus: direct bind ELISA, N-term VD.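 Note: antibody or DVD-Ig preparations bound to immobilized target antigen on ELISA plates, 1 h at room temperature, TMB detection read as absorbance at 450 nm.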
Take B4: the EC50 came out at 15.9 nM.
The same measure, in the same setting: then B5, with 4.08 nM; and B6, with 10.2 nM; and B7, with 2.19 nM.
On the same count and under the same terms, under B8 stands 0.33 nM; under B9, 0.18 nM; under B10, 0.82 nM.
The same measure, in the same setting: then B11, with 0.72 nM.

The target of the next test is T1, EGFR. Description: direct bind ELISA, C-term VD.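 Note: ELISA with antibody or DVD-Ig preparations applied to target antigen-coated plates for 1 h at room temperature, TMB colour development, absorbance read at 450 nm.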
The molecule B4 came in with an EC50 of 76.8 nM.
The same measure, in the same setting: under B5 stands 107 nM; under B6, 71.8 nM; under B7, 409 nM.
Same read-out and setting: under B8 stands 228 nM; under B9, 69.8 nM.
The same measure, in the same setting: then B10, with 48.6 nM; and B11, with 90 nM.

The next test concerns the target T2, VEGF. Description: direct bind ELISA, C-term VD.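 Note: ELISA with antibody or DVD-Ig preparations applied to target antigen-coated plates for 1 h at room temperature, TMB colour development, absorbance read at 450 nm.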
B1 came in with an EC50 of 0.57 nM.
Same read-out and setting: under B2 stands 128 nM; under B3, 528 nM.
